Data on 17 molecules can be found in US20240034792A1 (HARBOUR BIOMED SHANGHAI, published 2024).

Numbering of substitutions follows the chain as printed. Where only a bound is given, the exact number is not on record here.

The labels stand for the following.
B1: PR005090 (VHH)
VHH: EVQLVETGGGLIQPGGSLRLSCAASGFNVSSHYMSWVRQAPGKGREWVSIIDGGGSTYYADSVKGRFTISRDNSKNRLYLQMNSLRAEDTAMYYCARATAVAEKNGYNYPFNYWGQGTLVTVSS
notes: Monovalent single-domain (VH) antibody with Flag-6His tag
B2: PR002478 (antibody, human IgG1, V domains shown)
VH: B1 VHH with H32N, R45L, D52H, G53S, M92V, T99I
notes: Heavy-chain-only antibody (HCAb), human IgG1 Fc; two heavy chains, no light chain; also called R4004P548A8
B3: PR005148 (VHH)
VHH: B1 VHH with G53K, G54A, T57G, D61A, A100E, A102R
notes: Monovalent single-domain (VH) variant of PR002481 with Flag-6His tag
B4: PR005142 (VHH)
VHH: B1 VHH with S31F, H32Y, G53K, T57G, D61A, A100E, A102R
notes: as for B3
B5: PR005147 (VHH)
VHH: B1 VHH with S31Y, H32Y, G53K, G54A, A60G, D61A, A100M, A102R
notes: as for B3
B6: PR005145 (VHH)
VHH: B1 VHH with S31F, H32Y, G53K, A60G, A100E, A102R
notes: as for B3
B7: PR005149 (VHH)
VHH: B1 VHH with G53K, G54A, T57G, A100E, A102R, N105Q
notes: as for B3
B8: PR002475 (antibody, human IgG1, V domains shown)
VH: B1 VHH with H32N, R45L, D52H, G53S, R77T, M92V, T99I
notes: Heavy-chain-only antibody (HCAb), human IgG1 Fc; two heavy chains, no light chain; also called R4004P547D9
B9: PR005141 (VHH)
VHH: B1 VHH with S31Y, H32F, G53K, T57G, D61A, A100E, A102R
notes: as for B3
B10: PR002477 (antibody, human IgG1, V domains shown)
VH: B1 VHH with R45L, D52H, G53S, M92V, T99I
notes: Heavy-chain-only antibody (HCAb), human IgG1 Fc; two heavy chains, no light chain; also called R4004P547H9
B11: PR005144 (VHH)
VHH: B1 VHH with S31F, H32Y, G53K, G54S, D61A, A100E, A102R
notes: as for B3
B12: PR002473 (antibody, human IgG1, V domains shown)
VH: B1 VHH with R45L, D52H, G53S, R86I, M92V, T99I
notes: Heavy-chain-only antibody (HCAb), human IgG1 Fc; two heavy chains, no light chain; also called R4004P541H11
B13: PR005150 (VHH)
VHH: B1 VHH with H32F, G53K, G54A, A60G, D61A, A100E, A102R, N105Q
notes: as for B3
B14: PR005093 (VHH)
VHH: B1 VHH with A100R, A102R, K104A
notes: as for B3
B15: PR005097 (VHH)
VHH: B1 VHH with A102R
notes: as for B3
B16: PR005146 (VHH)
VHH: B1 VHH with S31F, G54A, T57G, D61A, A100M, A102R, N105Q
notes: as for B3
B17: PR005096 (VHH)
VHH: B1 VHH with A100R, A102P, N105G
notes: as for B3

The first experiment deals with T1, Human PD-1 expressed on CHO-K1 cells (CHO-K1/hPD-1) (human, UniProt Q15116 25-288).
T1 construct: whole, on cells; also called CHO-K1 cells overexpressing human PD-1
T1 sequence (Q15116 25-288): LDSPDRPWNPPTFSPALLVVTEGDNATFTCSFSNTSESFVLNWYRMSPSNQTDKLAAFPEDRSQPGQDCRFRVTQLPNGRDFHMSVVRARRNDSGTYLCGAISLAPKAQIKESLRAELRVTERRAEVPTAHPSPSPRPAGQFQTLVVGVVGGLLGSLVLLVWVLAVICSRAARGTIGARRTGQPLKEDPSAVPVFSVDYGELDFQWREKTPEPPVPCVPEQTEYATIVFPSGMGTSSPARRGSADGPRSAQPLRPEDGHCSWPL
Put plainly: FACS, CHO-K1/hPD-1 cells. As to the method: (§1) In order to investigate the in vitro binding activity of the PD-1 antigen-binding proteins to human/cynomolgus monkey PD-1, the binding assay at the cellular level was performed using a CHO-K1 cell strain overexpressing human or cynomolgus monkey PD-1 (CHO-K1/hPD-1 or CHO-K1/cyno PD-1, from GenScript). Briefly, the CHO-K1-hPD-1 cells were digested and resuspended in an F-12K complete medium, and the cell density was adjusted to 1×10⁶ cells/mL. The cells were seeded in a 96-well V-bottom plate (Corning, Cat#3894) at 100 μL/well, followed by the addition of the test antigen-binding proteins with concentrations 2-fold of final concentrations obtained by 5-fold gradient dilution were each added at 100 μL/well. The mixtures were well mixed. The maximum final concentration of the antigen-binding proteins was 100 nM or 300 nM. A total of 8-11 concentrations were set. hIgG was used as a control. The cells were incubated at 4° C. for 1 h away from light. Thereafter, the cells in each well were rinsed twice with 100 μL of pre-cooled PBS, and centrifuged at 500 g at 4° C. for 5 min, and then the supernatant was discarded. Then 100 μL of a fluorescent secondary antibody (goat anti-human IgG (H+L) secondary antibody, Alexa Fluor® 488 conjugate, Invitrogen, Cat #A11013, 1:1000) was added to each well. The plate was incubated away from light at 4° C. for 30 min. The cells in each well were rinsed twice with 200 μL of pre-cooled PBS, and centrifuged at 500 g at 4° C. for 5 min, and then the supernatant was discarded. Finally, the cells in each well were resuspended in 200 μL of pre-cooled PBS, and the fluorescence signal values were read using a BD FACS CANTOII.
(In flow cytometry, cells or beads pass a laser one at a time.)
As to B1, the midpoint of the response, the EC50, lay at 48.9 nM and the “MFI Maximum” value stood at 4150.
With B2, it took 20.6 nM to reach a half-maximal effect (EC50) and the “MFI Maximum” value worked out at 953000.
For B3, in that order: 27.6 nM and 11700.
As to B4, the EC50 (as a rule, the concentration needed to bring the measured effect to its halfway point) was 70.9 nM and the “MFI Maximum” value was 12400.
Consider B5, for which the EC50 stood at 382 nM and the “MFI Maximum” value came to 18000.
For B6, in that order: 18 nM and 10500.
For B7, in that order: 10.9 nM and 11100.
For B8, in that order: 18.5 nM and 959000.
Take B9: the EC50 was 110 nM and the “MFI Maximum” value was 13300.
For the molecule B10, the midpoint of the response, the EC50, lay at 29.3 nM and the “MFI Maximum” value turned out to be 955000.
For B11, in that order: 22.9 nM and 11600.
On to B12, for which the response was half-maximal at 25.6 nM (EC50) and the “MFI Maximum” value worked out at 1.04e+06.
Take B13: it took 22.4 nM to reach a half-maximal effect (EC50) and the “MFI Maximum” value amounted to 10400.

For the next experiment, the target named is T2, Human PD-1 protein with histidine and avi tags (ACRO Biosystems, PD1-H82E4) (human, UniProt Q15116 25-167).
T2 construct: Captured on streptavidin (SA) sensors in the BLI assay; not shown: histidine and avi tags
T2 sequence (Q15116 25-167 limits assumed): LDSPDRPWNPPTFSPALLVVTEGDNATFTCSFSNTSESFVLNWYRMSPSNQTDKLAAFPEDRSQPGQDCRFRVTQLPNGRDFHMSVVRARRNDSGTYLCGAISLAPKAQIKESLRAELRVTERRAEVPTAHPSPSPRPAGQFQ
Put plainly: BLI; ratio of kdis, apparently PR005090 over the variant. As to the method:
(§2) Human PD-1 proteins with histidine and avi tags were purchased from the manufacturer ACRO Biosystems (Cat#: PD1-H82E4), and the assay buffer was 1× kinetics buffer (diluted from 10× kinetics buffer (ForteBio, Cat#: 18-1105)) for kinetic assay and dilution of antigens and antibodies. The binding kinetics between the antigen and the antibody was analyzed by the biolayer interferometry (BLI) technique using an Octet molecular interaction analyzer (ForteBio, model: Octet Red96e).
(§3) When the binding kinetics between the antigen and the antibody was determined, the rotation speed of the sensor was set at 1000 rpm/min. The eight SA sensors placed in a column were first equilibrated in an assay buffer for 10 min and then used to capture PD-1 at a capture height of 0.5 nm. Thereafter, the SA sensors were equilibrated in the assay buffer for 100 s, and then were associated with each antibody diluted to a single concentration and with a row of blank buffer wells for 180 s, followed by dissociation for 600 s. A new column of SA sensors were used in each cycle.
(§4) When data analysis was performed using Octet Data Analysis software (Fortebio, version 11.0), the reference signals were subtracted by a single reference mode (reference well), the data were fitted by a “1:1 Local fitting” method, and the kinetic parameters of the binding of the antigen to the antibody were calculated to obtain kon (1/Ms) values, kdis (1/s) values and KD (M) values.
In general terms: Biolayer interferometry detects binding as a change in optical thickness at a sensor tip.
For B14, the kdis ratio amounted to 1.8.
On the same count and under the same terms, the value for B3 was 20; that for B15 was 1.46.
The same measure, in the same setting: next, B4: 20.6; B5: 41.7; B6: 21.8.
As for B7, the kdis ratio was 23.7.
On the same count and under the same terms, next, B16: 1.89; B9: 14.7; B11: 25.2.
The same measure, in the same setting: next, B17: 1.91.

The target of the next experiment is T1, Human PD-1 expressed on CHO-K1 cells …. Put plainly: FACS blocking of biotin-labeled human PD-L1 binding to CHO-K1-hPD-1 cells. As to the method: Briefly, the CHO-K1-hPD-1 cells were digested and resuspended in an F-12K complete medium, and the cell density was adjusted to 1×10⁶ cells/mL. The cells were seeded in a 96-well V-bottom plate (Corning, Cat#3894) at 100 μL/well, followed by the addition of the test antigen-binding proteins with concentrations 2-fold of final concentrations obtained by 3-fold or 5-fold gradient dilution were each added at 100 μL/well. The mixtures were well mixed. The maximum final concentration of the antigen-binding proteins was 100 nM or 300 nM. A total of 8 concentrations were set. hIgG was used as a control. The cells were incubated at 4° C. for 1 h away from light. […] The cells were incubated at 4° C. away from light for 30 min. The cells in each well were rinsed twice with 100 μL of pre-cooled PBS, and centrifuged at 500 g at 4° C. for 5 min, and then the supernatant was discarded. A fluorescent secondary antibody (PE Streptavidin, BD, Cat# 554061, 1:200) was added at 100 μL/well, and the cells were incubated at 4° C. away from light for 30 min. The cells in each well were rinsed twice with 200 μL of pre-cooled PBS, and centrifuged at 500 g at 4° C. for 5 min, and then the supernatant was discarded. Finally, the cells in each well were resuspended in 200 μL of pre-cooled PBS, the fluorescence signal values were read using a BD FACS CANTOII, and the IC₅₀ values were calculated.
Consider B2, for which the IC50 (usually the concentration needed to halve the response being measured) came out at 54.5 nM and the “Maximum inhibition rate (%)” value turned out to be 97%.
For B8, in that order: 37.5 nM and 92.1%.
For B10, in that order: 7.7 nM and 67.5%.
For B12, in that order: 4.79 nM and 62.2%.

The next experiment has the same target. Put plainly: FACS, CHO-K1/hPD-1 cells. This is another data set of the same source. As to the method:
as §1
As to B1, the midpoint of the response, the EC50, lay at 48.9 nM and the “MFI Maximum” value worked out at 4150.
For B14, in that order: 10.5 nM and 4530.
For B15, in that order: 17.9 nM and 4080.
For the molecule B17, a half-maximal response (EC50) required 27.6 nM and the “MFI Maximum” value came out at 4320.

The next experiment addresses T2, Human PD-1 protein with histidine and …. Put plainly: BLI (Octet Red96e), PD-1 captured on SA sensor, 1:1 local fit. The procedure:
as §2, §3, §4
For the molecule B1, the Kd (usually the equilibrium constant for the complex coming apart) was found to be 20.8 nM; the koff (as a rule, the rate constant with which the complex falls apart) is 0.00114 s⁻¹; the kon (usually the rate constant with which the complex forms) stood at 55000 M⁻¹ s⁻¹.
For B14, in that order: 4.82 nM, 0.000636 s⁻¹ and 132000 M⁻¹ s⁻¹.
B3 showed a dissociation constant (Kd) of 1.21 nM, a koff of 5.72e-05 s⁻¹ and a kon of 47200 M⁻¹ s⁻¹.
For B15, in that order: 13.9 nM, 0.000784 s⁻¹ and 56600 M⁻¹ s⁻¹.
B4 had a Kd of 6.76 nM, a koff of 5.55e-05 s⁻¹ and a kon of 8200 M⁻¹ s⁻¹.
For B5, in that order: 16.5 nM, 2.74e-05 s⁻¹ and 1660 M⁻¹ s⁻¹.
B6 yielded a Kd of 5.31 nM, a koff of 5.24e-05 s⁻¹ and a kon of 9860 M⁻¹ s⁻¹.
B7 displayed a Kd of 14 nM, a koff of 4.83e-05 s⁻¹ and a kon of 3450 M⁻¹ s⁻¹.
For the molecule B16, the Kd worked out at 1020 nM, the koff came to 0.000605 s⁻¹ and the kon was 593 M⁻¹ s⁻¹.
Molecule B9 yielded a Kd of 1.49 nM, a koff of 7.75e-05 s⁻¹ and a kon of 52100 M⁻¹ s⁻¹.
For B11, in that order: 4.51 nM, 4.52e-05 s⁻¹ and 10000 M⁻¹ s⁻¹.
The molecule B17 yielded a Kd of 10.4 nM, a koff of 0.000599 s⁻¹ and a kon of 57900 M⁻¹ s⁻¹.
In the case of B13, the Kd was under 0.001 nM, the koff is under 1e-07 s⁻¹ and the kon came out at 59000 M⁻¹ s⁻¹.
